This passage reports IC50 of dose-inhibition curve, whole-cell patch clamp of N-type Ca2+ current and recovery after washout (FIG. 5) results from patent publication US20100056456A1.

The target in this test is human N-type calcium channel (human) (UniProt Q00975). Nature of the test: cell-based or functional assay.
Sequence of human N-type calcium channel (human) (Q00975 whole entry): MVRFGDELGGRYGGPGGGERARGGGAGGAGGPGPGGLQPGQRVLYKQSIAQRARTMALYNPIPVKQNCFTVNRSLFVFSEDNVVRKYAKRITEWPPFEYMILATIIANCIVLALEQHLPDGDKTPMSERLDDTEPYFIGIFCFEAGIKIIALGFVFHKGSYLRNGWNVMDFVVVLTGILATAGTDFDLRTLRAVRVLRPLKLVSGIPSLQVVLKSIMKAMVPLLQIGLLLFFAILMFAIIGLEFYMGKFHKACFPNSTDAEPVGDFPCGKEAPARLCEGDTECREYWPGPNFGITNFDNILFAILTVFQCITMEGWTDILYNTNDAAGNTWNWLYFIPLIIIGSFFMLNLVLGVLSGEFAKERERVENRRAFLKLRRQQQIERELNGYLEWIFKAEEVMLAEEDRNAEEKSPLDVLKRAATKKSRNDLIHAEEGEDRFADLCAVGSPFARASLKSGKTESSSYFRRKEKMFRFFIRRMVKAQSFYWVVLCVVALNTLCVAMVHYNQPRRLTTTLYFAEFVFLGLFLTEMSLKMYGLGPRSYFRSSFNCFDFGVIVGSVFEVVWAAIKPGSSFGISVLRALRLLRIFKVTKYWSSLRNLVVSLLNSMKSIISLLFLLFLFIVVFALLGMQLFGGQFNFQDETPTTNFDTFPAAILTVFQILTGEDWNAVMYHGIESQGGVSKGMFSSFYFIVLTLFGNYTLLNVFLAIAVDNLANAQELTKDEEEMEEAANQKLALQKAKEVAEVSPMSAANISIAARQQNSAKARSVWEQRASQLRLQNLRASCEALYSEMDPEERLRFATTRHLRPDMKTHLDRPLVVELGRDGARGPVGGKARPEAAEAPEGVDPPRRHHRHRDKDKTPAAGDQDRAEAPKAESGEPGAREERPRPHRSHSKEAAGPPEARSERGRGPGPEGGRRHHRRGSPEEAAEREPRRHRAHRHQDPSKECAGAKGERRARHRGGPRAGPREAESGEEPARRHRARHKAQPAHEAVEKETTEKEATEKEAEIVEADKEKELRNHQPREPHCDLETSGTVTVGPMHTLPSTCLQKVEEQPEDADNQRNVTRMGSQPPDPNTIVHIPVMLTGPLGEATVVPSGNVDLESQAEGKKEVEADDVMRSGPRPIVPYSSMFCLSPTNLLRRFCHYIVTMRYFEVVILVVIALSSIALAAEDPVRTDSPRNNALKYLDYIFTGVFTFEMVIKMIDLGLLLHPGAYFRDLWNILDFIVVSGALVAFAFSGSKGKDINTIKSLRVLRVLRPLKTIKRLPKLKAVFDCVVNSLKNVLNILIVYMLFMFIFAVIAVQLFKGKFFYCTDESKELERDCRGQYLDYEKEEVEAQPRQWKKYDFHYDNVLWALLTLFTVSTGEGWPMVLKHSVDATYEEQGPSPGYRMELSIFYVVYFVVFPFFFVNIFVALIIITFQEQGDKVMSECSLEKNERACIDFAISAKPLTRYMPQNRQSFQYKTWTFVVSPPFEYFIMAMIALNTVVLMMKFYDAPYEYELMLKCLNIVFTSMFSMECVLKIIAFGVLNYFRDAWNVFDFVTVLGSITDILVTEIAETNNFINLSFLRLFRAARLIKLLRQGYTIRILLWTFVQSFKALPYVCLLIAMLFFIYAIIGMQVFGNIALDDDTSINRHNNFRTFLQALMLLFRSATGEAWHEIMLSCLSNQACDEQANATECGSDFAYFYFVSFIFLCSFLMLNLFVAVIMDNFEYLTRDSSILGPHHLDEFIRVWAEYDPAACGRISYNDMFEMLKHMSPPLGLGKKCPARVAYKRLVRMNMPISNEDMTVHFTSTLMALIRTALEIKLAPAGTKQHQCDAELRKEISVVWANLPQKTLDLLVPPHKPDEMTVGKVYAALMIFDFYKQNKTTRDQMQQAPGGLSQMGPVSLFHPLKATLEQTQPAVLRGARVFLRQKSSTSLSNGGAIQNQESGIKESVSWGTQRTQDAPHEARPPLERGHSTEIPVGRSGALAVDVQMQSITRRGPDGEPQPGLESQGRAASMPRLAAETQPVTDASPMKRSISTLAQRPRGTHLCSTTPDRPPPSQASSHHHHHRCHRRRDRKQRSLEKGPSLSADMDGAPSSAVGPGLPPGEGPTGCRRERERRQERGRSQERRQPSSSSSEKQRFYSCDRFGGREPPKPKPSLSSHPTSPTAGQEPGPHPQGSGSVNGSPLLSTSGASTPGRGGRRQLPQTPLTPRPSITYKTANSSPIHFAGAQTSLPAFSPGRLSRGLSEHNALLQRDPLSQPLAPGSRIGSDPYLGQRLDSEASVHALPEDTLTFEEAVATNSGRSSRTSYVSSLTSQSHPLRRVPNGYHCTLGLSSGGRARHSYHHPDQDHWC

As to ω-conotoxin FVIA (peptide), the IC50 of dose-inhibition curve, whole-cell patch clamp of N-type Ca2+ current was found to be 11.5 nM and the recovery after washout (FIG. 5) turned out to be 75%.
For ω-conotoxin MVIIA (peptide) the same measures were 7.96 nM and 35%.
